# Measured values: patent US20100204104A1
# B1: sRII-9Gly fusion protein (receptor)
# chain: IPPHVQKSVNNDMIVTDNNGAVKFPQLCKFCDVRFSTCDNQKSCMSNCSITSICEKPQEVCVAVWRKNDENITLETVCHDPKLPYHDFILEDAASPKCIMKEKKKPGETFFMCSCSSDECNDNIIFSEEYNTSNPDLHMGGGGGGGGGIDIPPHVQKSVNNDMIVTDNNGAVKFPQLCKFCDVRFSTCDNQKSCMSNCSITSICEKPQEVCVAVWRKNDENITLETVCHDPKLPYHDFILEDAASPKCIMKEKKKPGETFFMCSCSSDECNDNIIFSEEYNTSNPDL
# Experiments:
# [1] = molecular target: T1, TGF-β3 (UniProt P10600); assay: SPR (Biacore), TGF-β3 on chip, CHO-produced sRII-9Gly (lot 1) 1.2-90 nM injected, 1:1 model
# T1 sequence (looked up): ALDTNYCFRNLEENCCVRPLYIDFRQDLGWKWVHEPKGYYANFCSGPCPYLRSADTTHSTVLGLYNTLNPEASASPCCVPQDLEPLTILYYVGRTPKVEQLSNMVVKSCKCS
# [2] = molecular target: TGF-β1 (UniProt P01137); assay: SPR (Biacore), TGF-β1 on chip, HEK 293-produced sRII-9Gly 1.2-90 nM injected, 1:1 model
# [3] = molecular target: T1, TGF-β3; assay: cell-based or functional assay
# [4] = molecular target: TGF-β1 (UniProt P01137); assay: cell-based or functional assay
# [5] = molecular target: TGF-β1 (UniProt P01137); assay: SPR (Biacore), TGF-β1 on chip, CHO-produced sRII-9Gly (lot 2) 1.2-90 nM injected, 1:1 model
# [6] = molecular target: T1, TGF-β3; assay: SPR (Biacore), TGF-β3 on chip, HEK 293-produced sRII-9Gly 1.2-90 nM injected, 1:1 model
# [7] = molecular target: TGF-β1 (UniProt P01137); assay: SPR (Biacore), TGF-β1 on chip, CHO-produced sRII-9Gly (lot 1) 1.2-90 nM injected, 1:1 model
# [8] = molecular target: T1, TGF-β3; assay: SPR (Biacore), TGF-β3 on chip, CHO-produced sRII-9Gly (lot 2) 1.2-90 nM injected, 1:1 model
# Sequence of UniProt P01137 (P01137 279-390 limits assumed): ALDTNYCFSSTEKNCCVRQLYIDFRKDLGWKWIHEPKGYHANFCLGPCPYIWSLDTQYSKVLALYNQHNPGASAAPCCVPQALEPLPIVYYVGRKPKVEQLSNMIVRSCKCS
binder,measurement,setting,value
B1,Kd,[1],5 nM
same,koff,[1],0.00131 s⁻¹
same,Kd,[2],8.2 nM
same,koff,[2],0.0011 s⁻¹
same,"IC50 (nM), A549/IL-11 cell bioassay, CHO-produced sRII-9Gly Lot 9",[3],0.035 nM
same,"IC50 (nM), A549/IL-11 cell bioassay, CHO-produced sRII-9Gly Lot 10",[3],0.29 nM
same,"IC50 (nM), A549/IL-11 cell bioassay, CHO-produced sRII-9Gly Lot 11",[3],0.008 nM
same,"IC50 (nM), A549/IL-11 cell bioassay, CHO-produced sRII-9Gly Lot 12",[3],0.07 nM
same,"IC50 (nM), A549/IL-11 cell bioassay, CHO-produced sRII-9Gly Lot 13",[3],0.018 nM
same,"IC50 (nM), A549/IL-11 cell bioassay, CHO-produced sRII-9Gly Lot 9",[4],0.02 nM
same,"IC50 (nM), A549/IL-11 cell bioassay, CHO-produced sRII-9Gly Lot 10",[4],0.018 nM
same,"IC50 (nM), A549/IL-11 cell bioassay, CHO-produced sRII-9Gly Lot 11",[4],0.014 nM
same,"IC50 (nM), A549/IL-11 cell bioassay, CHO-produced sRII-9Gly Lot 12",[4],0.015 nM
same,"IC50 (nM), A549/IL-11 cell bioassay, CHO-produced sRII-9Gly Lot 13",[4],0.016 nM
same,"IC50 (nM), A549/IL-11 cell bioassay, sRII-9Gly Lot 4",[4],0.039 nM
same,"IC50 (nM), A549/IL-11 cell bioassay, sRII-9Gly Lot 5",[4],0.053 nM
same,"IC50 (nM), A549/IL-11 cell bioassay, sRII-9Gly Lot 6 (pH 7.0)",[4],0.054 nM
same,"IC50 (nM), A549/IL-11 cell bioassay, sRII-9Gly Lot 7 (pH 8.5)",[4],0.062 nM
same,"IC50 (nM), A549/IL-11 cell bioassay, sRII-9Gly Lot 8 (pH 9.0)",[4],0.047 nM
same,"IC50 (ng/ml), A549/IL-11 cell bioassay, sRII-9Gly Lot 4",[4],1.34 ng/mL
same,"IC50 (ng/ml), A549/IL-11 cell bioassay, sRII-9Gly Lot 5",[4],1.8 ng/mL
same,"IC50 (ng/ml), A549/IL-11 cell bioassay, sRII-9Gly Lot 6 (pH 7.0)",[4],1.82 ng/ml
same,"IC50 (ng/ml), A549/IL-11 cell bioassay, sRII-9Gly Lot 7 (pH 8.5)",[4],2.12 ng/ml
same,"IC50 (ng/ml), A549/IL-11 cell bioassay, sRII-9Gly Lot 8 (pH 9.0)",[4],1.59 ng/ml
same,Kd,[5],9.8 nM
same,koff,[5],0.0011 s⁻¹
same,Kd,[6],2.1 nM
same,koff,[6],0.00034 s⁻¹
same,Kd,[7],6.3 nM
same,koff,[7],0.00117 s⁻¹
same,Kd,[8],6.8 nM
same,koff,[8],0.00085 s⁻¹
